For this test, the target named is GFP-tagged mDia1ΔN3 (mouse) (UniProt O08808).
Sequence of UniProt O08808 (O08808 543-1192, stated change not applied): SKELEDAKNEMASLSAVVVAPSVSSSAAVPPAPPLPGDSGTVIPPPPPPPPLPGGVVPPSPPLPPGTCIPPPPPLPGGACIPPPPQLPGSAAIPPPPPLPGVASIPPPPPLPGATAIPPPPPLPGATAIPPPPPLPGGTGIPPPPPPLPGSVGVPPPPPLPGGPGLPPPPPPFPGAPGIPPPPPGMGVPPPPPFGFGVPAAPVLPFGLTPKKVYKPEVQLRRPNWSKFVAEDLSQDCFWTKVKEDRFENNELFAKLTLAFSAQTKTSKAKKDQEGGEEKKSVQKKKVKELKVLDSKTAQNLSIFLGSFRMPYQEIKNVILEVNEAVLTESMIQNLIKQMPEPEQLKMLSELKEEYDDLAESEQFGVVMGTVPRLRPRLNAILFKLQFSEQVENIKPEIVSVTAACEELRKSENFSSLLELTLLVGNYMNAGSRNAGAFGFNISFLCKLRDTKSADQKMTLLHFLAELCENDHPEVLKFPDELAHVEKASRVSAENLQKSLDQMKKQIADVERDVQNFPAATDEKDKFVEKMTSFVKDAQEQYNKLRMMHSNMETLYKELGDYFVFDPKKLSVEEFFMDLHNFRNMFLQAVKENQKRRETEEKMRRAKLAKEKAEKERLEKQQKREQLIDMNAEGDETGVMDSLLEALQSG

Substance “Flag-tagged mouse Phb2 FL (from UniProt O35129 1-299) (natural protein)” had a frequency of MyoG+ cells (immunofluorescence) in C2C12 myotubes co-expressing Phb2 FL and mDia1ΔN3 (mDia1ΔN3 alone: 15%) of 53%.
